Consider 32 sequences from a protein production outcome set (Wang et al. 2014).

The data set is described as follows: label from the status in PepcDB records.

With “KVVKFSYMWTINNFSFCREEMGEVIKSSTFSSGANDKLKWCLRVNPKGLDEESKDYLSLYLLLVSCPKSEVRAKFKFSILNAKGEETKAMESQRAYRFVQGKDWGFKKFIRRDFLLDEANGLLPDDKLTLFCEVSVVQDSVNISGQ”, the protein production result is recorded as “not failed”.

With “KVWKPGDECFALYWEDNKFYRAEVEALHSSGMTAVVKFTDYGNYEEVLLSNIKPVQTEAWVRDPN”, the protein production entry is listed as “not failed”.

As for “LAALCPVAVPSGVQIYTIDGPLFFGAAATFERTLAGLHDQAEAVIFRLGRVPFADATAMHALDDVVRHFRQRHIEVRVCEANPRVAHKLREFGLLARIGQQDASISVLDALAELAPQPGTQVQAEAS”, the protein production entry is “failed”.

With “LAKILGMDSDGLNRLECFDISHTQGEATIASCVVYDEQNIQPSQYRRYNITTAKPGDDYAAMREVLTRRYGKMQEAEANGETVKWPDAVLIDGGKGQIGVAVSVWEELGLHIPLVGIAKGPERKAGMEELILPFTGEVFRLPPNSPALHLLQTVRDESHRFAI”, the protein production result is given as “failed”.

In the case of “LAVIVVLGCFALGLGGIIGFVHKGEDYQAYQKLQWHTLAPEKIAPLVAQGYTVFVDITSDWCSICQTNKAEVTHREQVVNALMADDIILMQGNWSEADNTIAGYMQYEGIPGTPYNKIYGPRNPNGIVLPSKLTIEAVINGLAQA”, the protein production result was “failed”.

As for “LAYEELRQREAQTAMQLAVNNALLTIKDRSRMLLAVCEQIDKLVPCTFLGIRVMDRDGNFRIFDNFMRETPSGFFPVSAHEKLDVPDFAEMARESFSLITSPGCFSGEAFQLLCDKYRLVGLVREKFNICSLISVRLWDLPGSCAGLIISDTSRAFDEHDQETVGLIVPQLSLALQNYLAFEEIDKLRRKLEGEKAYLFEEIKATHD”, the protein production entry was “failed”.

“LDLMKEKNLIQKFFKELIKDDGGLSAYGEAQVMKYLEMGAIDTLIVTEDIGITRVTVKCNNCDYAQEVNVKTNEMFKFEEQLKTKACPTCGGAMYIDEEKDIIEHLSDLCHMHNTDIIVVSTDTEEGSQISRAFKGMAAILRYKL”: the protein production entry is recorded as “not failed”.

For the sequence “LDNRFNYINVPGLGGSGEHHWQTFWEQAYPEIHRVQQADWDHPICSVWVNKLQLITETCSDKPVVLIAHSLGCVTVLHAVAQRKLKGIAGAFLVAMPDAERADFPKECIGFIPVPRIVLPFPAVMIASENDPYITSPELKKWADVIQASFVSVGQRGHIGTAAQLTYWEEGQQLFRSFVEQL”, the protein production result was “failed”.

Consider “LENCVFCKIIKRELPSTIYYEDERVIAIKDINPAAPVHVLIIPKEHIANVKEINESNAQILIDIHKAANKVAEDLGIAEKGYRLITNCGVAAGQTVFHLHYHLLGGVDMGPKIL”, for which the protein production entry was “not failed”.

As for “LEYQKSQPPQPGDKFVSVVSQFITVASFSFSDVEDLLAEAKDLFTKAVKHFGEEAGKIQPDEFFGI”, the protein production entry is on record as “failed”.

In the case of “LFSSRDILEVLQDIHMETGETVAIATKNDIYLQYIQIIESVHALRFHVDENAIRPLTMSSNGWMLMSTMNDKAIDNTVRRANTITQKDGIRFEVDDMMARIRQVREQGYASAEHIPFVGGGTICVLLPMTIQGQPVTMGLGGALDRIKQNYDRYLELLLNGVQQLKKSDSFHQPI”, the protein production entry is “not failed”.

Regarding “LGTVIQENSRSGGEQSANFFVNGPLAENLLLQVYGQYTAREEDDIDYGYEDKDMQSISSKLIYQINDRHSVQLEGGTSAQSRRGNVGLSVPTTGCRRGCEDSLNEYRRNYVTLSHTGEWELLGNSDTYLQREESENKSREMTIVNTTFKSSLVKGLGAHTLTTGVDATHAELEDFTSNKASSKTKASNTQWAVFIEDEWKIAEPFSLTLGGRLDHDENYGAHFSPRVYGVWRVAPAWTVKGGVATGFRSPQLREITPGWAQVSGGGNIYGNPDLDPETSLNKEISVLYQGDSGLDVTLTAFHNEFKDKITRVVCPDTICTDGPNQWGADPTYRINVDEAVTQGVEATLAKPLTETIYLSSSYTFTDSEQKTGEYKGMPLQQLPKHLFNVDVTWQTTDNLESWTKVTYRGKEMDPVTGPSRNSIVEPAYTFVDAGVTYQLTDNTKIKGAIYNLFDEDINYKEYGYVEDGRRYWLGLDVAF”, the protein production entry is “failed”.

On to “LIKRMNAEELLHEKIEFNDLLLRSVENPIFWRDSRGFLIDCNAQFTRLLGISKDRLVGRSVYDICGDLHTPVLEGLLTKVLQGEGEQYDIDFKNHEGETLSFLVQASEYHDKSEKVAGVVTILFDMT”, for which the protein production entry is recorded as “failed”.

“LKDVLNILLMDEISKLKDFLSNLDYIKPKVNIEEEIIEIRKEDIINALKLFKGKYEIEVDKIPKAVYVYLVKKNILFLYPQRGTLKPQSFLVWNAIKRVL”: the protein production result is “not failed”.

With “LKKLPAEIYLIDEQAKTSVQDFEYASYYHSSATVNTGTFNECRSADLVLFFQEEMSNESFSNEDNLALIKEKVKKMMATGFQGIVLVATAESNIVASLIKHFSGLPANQIITPG”, the protein production result is “failed”.

On to “LKVMLRPILPEDEPKHLAFDNSLSDEDRYKRYFGVRSKMTHEEMAVLTQIDYAREMAFIATAKGPDGDDITLGAVRASIDPDNTEAEFAMAVRGDHQGIGLGKLLLEKLIKYYQANDTPVLTGFTMFENRNMASLAKNLGFKVTFDME”, for which the protein production result was “failed”.

As for “LKYMYKIDDDKKYILYCPTWRGNQRKEVTQINLKDLLKYLPENYEIIVKLHPNESHLRTRYNQIDNRIHCYFNELVDIQELYILSECMITDYSSTIFDYIHLNKPVFILQEDEQQYKQSVGFYFDLFEVGDFLKASLNERMLAKQICSTDYINYSKVVHRLMKQDSSKSSEKLMAEILG”, the protein production result was “failed”.

“LNLMMTPMLKVLATPERLAFGLKQMVSYLHANGVTAYMEPGALYTPDMWKLYEQILGAPETPMYATFIADGRGIVDRVGLDGALDAVEQQIAVAPEAPGRKLMFFPGQIKLFADGAIISQLMQMKDGYLDGHQGEWIIPPDELERRARLFWNAGYQIHTHVNGDLGLEKLLDILEKLNAEHPRPDHRSVIVHFANSTEDQVARIKRLGALVSANPYYTTGFADKYSAVGLGPERADAMVRAKSVLDQGVPLSYHSDLPMAPSAPLYLAWCGVNRLTPSGRVAGPEQRVSVDAALRAITIEAAYSWRHEDQ”: the protein production entry is given as “failed”.

Regarding “LNSSYVNGNTAGNLYNAGLFCESDGEVFFSNTNDNGRLYAMNIDGSNIHKLSNDTAMYINADKNYVYYVRNNNQKITSQTFFSYDRNSLCRIKRNGHGSTVLDPDPCIYASLIGNYIYYLHYDTQTATSLYRIRIDGEEKKKIKNHYLFTCNTSDRYFYYNNPKNGQLYRYDTASQSEALFYDCNCYKPVVLDDTNVYYMDVNRDNAIVHVNINNPNPVVLTEANIEHYNVYGSLIFYQRGGDNPALCVVKNDGTGFKELAKGEFCNINVTSQYVYFTDFVSNKEYCTSTQNPDTIKALQP”, the protein production entry is “not failed”.

On to “LQCEICGFTCRQKASLNWHQRKHAETVAALRFPCEFCGKRFEKPDSVAAHRSKSHPALLLAPQES”, for which the protein production result is on record as “not failed”.

As for “LQESEARFQAFMNNSPSASWITDDHGRMLYLSQTYVRTFQLPFDKVEDVTGKTVFELYTPEVAQPFLDNIHRVAQTQQILETIEKAPRLDGTLGDFLVYKFPLPATTGELFIGGVAVDISDKIRAEQALQKLNQELEAR”, the protein production entry is on record as “not failed”.

With “LQSKLSLPKIPNVIECFDISHLSGTATVGSMVQFRGGRPDKHNYRRFKIESVEGIDDFASIAEVVRRRYSRLLEDKHEMPDLIIIDGGKGQLSSAFQELRKLRVKVPIISIAKREEEIYVPGLKSPLPIKKDEKASLFVQEIRDEAHRFAINYNRLLRQKALIQK”, the protein production entry is “failed”.

For “LRGFVPSSVWLERGVFPPSNEEVIKLGLSPTSMVARLKRQRLADGVVMAIEMSTMPVAYLPDPQAVGTSLYAHLDATGHSVVRALQHIRAVNASGDVAQLAGIRPGEAMLLITRIGFNADNVAIELTDTYCRNDYYDFVAELKR”, the protein production entry is reported as “not failed”.

Regarding “LRSNRVTQHPPLQLSLPVHLPDDETFTSYYPAAGNDELIGALKSAASGDGVQAIYLWGPVKSGRTHLIHAACARANELERRSFYIPLGIHASISTALLEGLEQFDLICIDDVDAVAGHPLWEEAIFDLYNRVAEQKRGSLIVSASASPMEAGFVLPDLVSRMHWGLTYQLQPMMDDEKLAALQRRAAMRGLQLPEDVGRFLLNRMARDLRTLFDVLDRLDKASMVHQRKLTIPFVKEMLRL”, the protein production entry was “not failed”.

With “LRSPRLYTHRLILRPWLVQDRARFAELNADPLVMEFFPSCLDRAQSDALLRRIDAHFAEHGFGWWALQVKGGDPFIGYVGLEVVDFDAPFVPAVAIGWRLAAEHWAEGFAHEAAEAALSYAFDTLGLDQVVAFTVPANENSLGLMERLGMHRDPTDDFEHPDLPPGHRLRHHVLYRLTREDWLRR”, the protein production entry is “not failed”.

With “LSDPNLVLFYVKNPAKSEEFYKNLLDTQPIESSPTFAMFVMKTGLRLGLWAQEEIEPKAHQTGGGMELSFQVNSNEMVDEIHRQWSDKEISIIQPPTQMDFGYTFVGVDPDEHRLRIFCLKRT”, the protein production result is on record as “not failed”.

For “LTLDLAPVTPKDAPLLHRVFHLSPSYFALIGMELPTLEDVVRDLQTLEVDPRRRAFLLFLGQEPVGYLDAKLGYPEAEDATLSLLLIREDHQGRGLGRQALERFAAGLDGVRRLYAVVYGHNPKAKAFFQAQGFRYVK”, the protein production result is listed as “not failed”.

“LTRWGAFRNITLPLALPGLAAAAMFTFVMSWNEVFVASILTLKNRTLPAQILSIVAGAAGGAAPAYYKFAAAFIMTLPAMLFIFFARRYLVTMWGITL”: the protein production result was “failed”.

In the case of “LVVSIRVQGDKRLSSLRRCCALTRYDAHKMSHDAFTVIKNCNTSGIQTEWSPPLTMLFLCATKFSASAP”, the protein production entry is given as “failed”.

Turning to “LYLAGIGQYAALLEAGFARARSAEETVRLLVTSYIDWVVANPDWARFILHSRGRVEAGELGERLRADNQAHFARIHAALAGYRAEGLFREMPDDCFASVVIGPAHDLARQWLAGRTRVALADCRELLAQVAWDSVRAA”, the protein production entry is “not failed”.

On to “MAAASPLRDCQAWKDARLPLSTTSNEACKLFDATLTQYVKWTNDKSLGGIEGCLSKLKAADPTFVMGHAMATGLVLIGTGSSVKLDKELDLAVKTMVEISRTQPLTRREQLHVSAVETFANGNFPKACELWEQILQDHPTDMLALKFSHDAYFYLGYQEQMRDSVARIYPFWTPDIPLSSYVKGIYSFGLMETNFYDQAEKLAKEALSINPTDAWSVHTVAHIHEMKAEIKDGLEFMQHSETFWKDSDMLACHNYWHWALYLIEKGEYEAALTIYDTHILPSLQANDAMLDVVDSCSMLYRLQMEGVSVGQRWQDVLPVARKHSRDHILLFNDAHFLMASLGAHDPQTTQELLTTLRDASESPGENCQHLLARDVGLPLCQALVEAEDGNPDRVLELLLPIRYRIVQLGGSNAQRDVFNQLLIHAALNCTSSVHKNVARSLLMERDALKPNSPLTERLIRKAATVHLMQ”, for which the protein production entry is given as “failed”.

Take “MAACPELVDATFAILASGWHSTAVEVGGRWVFKFPRGAEAEAALLREAAVLRLVRPAVSLPVPAPQVFAGPPLFSRHEKLPGGYLLGEDYRRLDEPARQAVGDALGRFYAELHRLPPARMRAVGALPVRPWESPAAMRRRALPLLPAAWRERAERLVREYAKLPADPLGSIFGFFDGHGWNMAFDSEAGRLNGVYDFADAGIGPLHQEFIYSAFIDADLTERIVAAYERFSGRRLERRRIALLTAAHRLSELAELADEPRHLPDMLAGALDGLALAEAQGLA”: the protein production result is reported as “failed”.
